# Assay results from patent US20210317225A1 (Genmab, published 2021).
# B1: CD40-001-FEALxCD137-001-FEAR (bispecific antibody, human IgG1, kappa)
# heavy 1: EVQLQQSGPDLVKPGASVKISCKTSGYTFTEYIMHWVKQSHGKSLEWIGGIIPNNGGTSYNQKFKDKATMTVDKSSSTGYMELRSLTSEDSAVYYCTRREVYGRNYYALDYWGQGTLVTVSSASTKGPSVFPLAPSSKSTSGGTAALGCLVKDYFPEPVTVSWNSGALTSGVHTFPAVLQSSGLYSLSSVVTVPSSSLGTQTYICNVNHKPSNTKVDKRVEPKSCDKTHTCPPCPAPEFEGGPSVFLFPPKPKDTLMISRTPEVTCVVVAVSHEDPEVKFNWYVDGVEVHNAKTKPREEQYNSTYRVVSVLTVLHQDWLNGKEYKCKVSNKALPAPIEKTISKAKGQPREPQVYTLPPSREEMTKNQVSLTCLVKGFYPSDIAVEWESNGQPENNYKTTPPVLDSDGSFLLYSKLTVDKSRWQQGNVFSCSVMHEALHNHYTQKSLSLSPGK
# light 1: DIQMTQTTSSLSASLGDRVTITCSASQGINNYLNWYQQKPDGTVKLLIYYTSSLHSGVPSRFSGSGSGTDYSLTISNLEPEDIATYYCQQYSNLPYTFGGGTKLEIKRTVAAPSVFIFPPSDEQLKSGTASVVCLLNNFYPREAKVQWKVDNALQSGNSQESVTEQDSKDSTYSLSSTLTLSKADYEKHKVYACEVTHQGLSSPVTKSFNRGEC
# heavy 2: QSVEESGGRLVTPGTPLTLTCTVSGFSLSSYAVSWVRQAPGKGLEWIGVIWNNGATHYATWAKGRFTISKASTTVDLKVTSPTTEDTATYFCARSANDAWSTYSDLWGQGTLVTVSSASTKGPSVFPLAPSSKSTSGGTAALGCLVKDYFPEPVTVSWNSGALTSGVHTFPAVLQSSGLYSLSSVVTVPSSSLGTQTYICNVNHKPSNTKVDKRVEPKSCDKTHTCPPCPAPEFEGGPSVFLFPPKPKDTLMISRTPEVTCVVVAVSHEDPEVKFNWYVDGVEVHNAKTKPREEQYNSTYRVVSVLTVLHQDWLNGKEYKCKVSNKALPAPIEKTISKAKGQPREPQVYTLPPSREEMTKNQVSLTCLVKGFYPSDIAVEWESNGQPENNYKTTPPVLDSDGSFFLYSRLTVDKSRWQQGNVFSCSVMHEALHNHYTQKSLSLSPGK
# light 2: DIVMTQTPASVEAAVGGTVTIKCQASQTITNYLSWYQQKPGQPPKLLIYKASTLTSGVSSRFKGSGSGTEFTLTISDLESDDAATYYCQNYYYGSSSGYGFVFGGGTEVVVKRTVAAPSVFIFPPSDEQLKSGTASVVCLLNNFYPREAKVQWKVDNALQSGNSQESVTEQDSKDSTYSLSSTLTLSKADYEKHKVYACEVTHQGLSSPVTKSFNRGEC
# B2: CD40-001-FEALxCD137-006-FEAR (bispecific antibody, human IgG1, kappa)
# heavy 1: B1 heavy 1
# light 1: B1 light 1
# heavy 2: QSVEESGGRLVTPGTPLTLTCTVSGFSLSSYAMSWVRQAPGKGLEWIGIISTSGITYYASWAKGRFTISKTSTMVDLKITSPTTEDTATYFCARLNGFDDYVRYFDFWGLGTLVTVSSASTKGPSVFPLAPSSKSTSGGTAALGCLVKDYFPEPVTVSWNSGALTSGVHTFPAVLQSSGLYSLSSVVTVPSSSLGTQTYICNVNHKPSNTKVDKRVEPKSCDKTHTCPPCPAPEFEGGPSVFLFPPKPKDTLMISRTPEVTCVVVAVSHEDPEVKFNWYVDGVEVHNAKTKPREEQYNSTYRVVSVLTVLHQDWLNGKEYKCKVSNKALPAPIEKTISKAKGQPREPQVYTLPPSREEMTKNQVSLTCLVKGFYPSDIAVEWESNGQPENNYKTTPPVLDSDGSFFLYSRLTVDKSRWQQGNVFSCSVMHEALHNHYTQKSLSLSPGK
# light 2: AIELTQTPSSVSAAVGGTVTINCQASESIASNLAWYQQKPGQPPKLLIYAASYLASGVPSRFKGSGSGTEYTLTISGVQSADAATYYCQSAFYVSSSDNAFGGGTEVVVKRTVAAPSVFIFPPSDEQLKSGTASVVCLLNNFYPREAKVQWKVDNALQSGNSQESVTEQDSKDSTYSLSSTLTLSKADYEKHKVYACEVTHQGLSSPVTKSFNRGEC
# B3: CD40-001-FEALxCD137-007-FEAR (bispecific antibody, human IgG1, kappa)
# heavy 1: B1 heavy 1
# light 1: B1 light 1
# heavy 2: QSLEESGGRLVTPGTPLTLTCTASGFSLSSYDVSWVRQAPGKGLEYIGFIGSDGSAHYATWVKGRFTISKTSTTVDLKITSPTTEDTATYFCARDWNDYWAHDLWGPGTLVTVSSASTKGPSVFPLAPSSKSTSGGTAALGCLVKDYFPEPVTVSWNSGALTSGVHTFPAVLQSSGLYSLSSVVTVPSSSLGTQTYICNVNHKPSNTKVDKRVEPKSCDKTHTCPPCPAPEFEGGPSVFLFPPKPKDTLMISRTPEVTCVVVAVSHEDPEVKFNWYVDGVEVHNAKTKPREEQYNSTYRVVSVLTVLHQDWLNGKEYKCKVSNKALPAPIEKTISKAKGQPREPQVYTLPPSREEMTKNQVSLTCLVKGFYPSDIAVEWESNGQPENNYKTTPPVLDSDGSFFLYSRLTVDKSRWQQGNVFSCSVMHEALHNHYTQKSLSLSPGK
# light 2: AQVLTQTTSPVSAAVGGTVTINCQASQIVTSKSALSWYQQKPGQPPRLLIYKASTLASGVPSRFSGSGSGTQFTLTISDLESDDAATYYCAGGYYNSGDLNPFGGGTEVVVKRTVAAPSVFIFPPSDEQLKSGTASVVCLLNNFYPREAKVQWKVDNALQSGNSQESVTEQDSKDSTYSLSSTLTLSKADYEKHKVYACEVTHQGLSSPVTKSFNRGEC
# B4: CD40-001-FEALxCD137-008-FEAR (bispecific antibody, human IgG1, kappa)
# heavy 1: B1 heavy 1
# light 1: B1 light 1
# heavy 2: QSLEESGGRLVTPGTPLTLTCTASGFSLSSYDMSWVRQAPGKGLEYIGYISSSGNTYYASWAKSRFTISKTSTTVDLKITSPTTEDTATYFCAREGDYWDFNLWGPGTLVTVSSASTKGPSVFPLAPSSKSTSGGTAALGCLVKDYFPEPVTVSWNSGALTSGVHTFPAVLQSSGLYSLSSVVTVPSSSLGTQTYICNVNHKPSNTKVDKRVEPKSCDKTHTCPPCPAPEFEGGPSVFLFPPKPKDTLMISRTPEVTCVVVAVSHEDPEVKFNWYVDGVEVHNAKTKPREEQYNSTYRVVSVLTVLHQDWLNGKEYKCKVSNKALPAPIEKTISKAKGQPREPQVYTLPPSREEMTKNQVSLTCLVKGFYPSDIAVEWESNGQPENNYKTTPPVLDSDGSFFLYSRLTVDKSRWQQGNVFSCSVMHEALHNHYTQKSLSLSPGK
# light 2: AQVLTQTPSSVSAAVGGTVTINCQASQSISNLLAWYQQKPGQRPRLLIYRASTLASGVPSRFKGSGSGTEFTLTISDLESEDAATYYCAGGFPGLDTGATFGGGTEAVVTRTVAAPSVFIFPPSDEQLKSGTASVVCLLNNFYPREAKVQWKVDNALQSGNSQESVTEQDSKDSTYSLSSTLTLSKADYEKHKVYACEVTHQGLSSPVTKSFNRGEC
# B5: CD40-001-FEALxCD137-005-FEAR (bispecific antibody, human IgG1, kappa)
# heavy 1: B1 heavy 1
# light 1: B1 light 1
# heavy 2: QSVEESGGRLVTPGTPLTLTCTASGFTISDFHVTWVRQAPGKGLEWIGTIITSASTTAYATWARGRFTISKSSTTVNLKIVSPTTEDTATYFCARSTYTDTSGYYFDFWGQGTLVTVSSASTKGPSVFPLAPSSKSTSGGTAALGCLVKDYFPEPVTVSWNSGALTSGVHTFPAVLQSSGLYSLSSVVTVPSSSLGTQTYICNVNHKPSNTKVDKRVEPKSCDKTHTCPPCPAPEFEGGPSVFLFPPKPKDTLMISRTPEVTCVVVAVSHEDPEVKFNWYVDGVEVHNAKTKPREEQYNSTYRVVSVLTVLHQDWLNGKEYKCKVSNKALPAPIEKTISKAKGQPREPQVYTLPPSREEMTKNQVSLTCLVKGFYPSDIAVEWESNGQPENNYKTTPPVLDSDGSFFLYSRLTVDKSRWQQGNVFSCSVMHEALHNHYTQKSLSLSPGK
# light 2: AQVLTQTASPVSAAVGGTVIINCQSSQSIYNGNRLSWYQQKPGQPPKLLIYSASTLASGVSSRFKGSGSGTQFTLAISDVQSDDAATYYCLGSYDCDSADCFAFGGGTEVVVERTVAAPSVFIFPPSDEQLKSGTASVVCLLNNFYPREAKVQWKVDNALQSGNSQESVTEQDSKDSTYSLSSTLTLSKADYEKHKVYACEVTHQGLSSPVTKSFNRGEC
# B6: CD40-001-FEALxCD137-010-FEAR (bispecific antibody, human IgG1, kappa)
# heavy 1: B1 heavy 1
# light 1: B1 light 1
# heavy 2: QSVEESGGRLVTPGTPLTLTCTVSGFSLSTYAMIWVRQAPGKGLEWIGVVYDNGYISHATWVKGRFTISKTSTTVGLEITSPTTEDTATYFCARSADGSWSTYFNLWGQGTLVTVSSASTKGPSVFPLAPSSKSTSGGTAALGCLVKDYFPEPVTVSWNSGALTSGVHTFPAVLQSSGLYSLSSVVTVPSSSLGTQTYICNVNHKPSNTKVDKRVEPKSCDKTHTCPPCPAPEFEGGPSVFLFPPKPKDTLMISRTPEVTCVVVAVSHEDPEVKFNWYVDGVEVHNAKTKPREEQYNSTYRVVSVLTVLHQDWLNGKEYKCKVSNKALPAPIEKTISKAKGQPREPQVYTLPPSREEMTKNQVSLTCLVKGFYPSDIAVEWESNGQPENNYKTTPPVLDSDGSFFLYSRLTVDKSRWQQGNVFSCSVMHEALHNHYTQKSLSLSPGK
# light 2: DIVMTQTPASVEAAVGGTVTIKCQASESISNYLAWYQQKPGQPPKLLIYKASTLASGVSSRFKGSGSGTEFTLTISDLESADAATYYCQTNYCCSSSDNGFAFGGGTEVVVKRTVAAPSVFIFPPSDEQLKSGTASVVCLLNNFYPREAKVQWKVDNALQSGNSQESVTEQDSKDSTYSLSSTLTLSKADYEKHKVYACEVTHQGLSSPVTKSFNRGEC
# B7: CD40-001-FEALxCD137-009-FEAR (bispecific antibody, human IgG1, kappa)
# heavy 1: B1 heavy 1
# light 1: B1 light 1
# heavy 2: QSLEESGGRLVTPGTPLTLTCTVSGFSLNDYWMSWVRQAPGKGLEWIGYIDVGGSLYYASWAKGRFTISRTSTTVDLKMTSLTTEDTATYFCARGGLTYGFDLWGPGTLVTVSSASTKGPSVFPLAPSSKSTSGGTAALGCLVKDYFPEPVTVSWNSGALTSGVHTFPAVLQSSGLYSLSSVVTVPSSSLGTQTYICNVNHKPSNTKVDKRVEPKSCDKTHTCPPCPAPEFEGGPSVFLFPPKPKDTLMISRTPEVTCVVVAVSHEDPEVKFNWYVDGVEVHNAKTKPREEQYNSTYRVVSVLTVLHQDWLNGKEYKCKVSNKALPAPIEKTISKAKGQPREPQVYTLPPSREEMTKNQVSLTCLVKGFYPSDIAVEWESNGQPENNYKTTPPVLDSDGSFFLYSRLTVDKSRWQQGNVFSCSVMHEALHNHYTQKSLSLSPGK
# light 2: DIVMTQTPASVSEPVGGTVTINCQASEDISSYLAWYQQKPGQRPKRLIYGASDLASGVPSRFSASGSGTEYALTISDLESADAATYYCHYYATISGLGVAFGGGTEVVVKRTVAAPSVFIFPPSDEQLKSGTASVVCLLNNFYPREAKVQWKVDNALQSGNSQESVTEQDSKDSTYSLSSTLTLSKADYEKHKVYACEVTHQGLSSPVTKSFNRGEC
# Target: Human CD137 (TNR9_Human) (human, UniProt Q07011 24-255)
# Experiment: cell-based or functional assay
# Chain of Human CD137 (TNR9_Human) (Q07011 24-255): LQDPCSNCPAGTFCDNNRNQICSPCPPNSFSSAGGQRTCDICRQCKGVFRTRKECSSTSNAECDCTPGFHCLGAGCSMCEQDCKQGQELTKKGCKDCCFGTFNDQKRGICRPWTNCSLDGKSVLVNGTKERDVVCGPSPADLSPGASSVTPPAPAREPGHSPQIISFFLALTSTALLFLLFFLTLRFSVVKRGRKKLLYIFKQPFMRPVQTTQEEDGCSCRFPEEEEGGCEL
Binder,"luciferase activity (RLU) of NF-KB/293/GFP-Luc cells transduced with CD137, incubated with K562_CD40","EC50 for induction of T-cell proliferation (antigen-specific CD8+ T-cell assay, proliferation index curves)"
B1,~100 ng/mL,
B2,~100 ng/mL,
B3,~100 ng/mL,
B4,~100 ng/mL,
B5,~100 ng/mL,0.005 µg/mL
B6,~100 ng/mL,
B7,~100 ng/mL,0.03 µg/mL

# Target: Human CD40 (human, UniProt P25942 21-277)
# Experiment: cell-based or functional assay
# Chain of Human CD40 (P25942 21-277): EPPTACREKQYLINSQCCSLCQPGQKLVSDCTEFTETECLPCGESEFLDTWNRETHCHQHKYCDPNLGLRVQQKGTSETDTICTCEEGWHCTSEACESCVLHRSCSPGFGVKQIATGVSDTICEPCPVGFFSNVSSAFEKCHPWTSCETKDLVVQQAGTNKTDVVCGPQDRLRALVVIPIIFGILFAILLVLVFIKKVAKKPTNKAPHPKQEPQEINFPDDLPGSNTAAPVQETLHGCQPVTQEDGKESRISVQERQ
row,Binder,"luciferase activity (RLU) of NF-KB/293/GFP-Luc cells transduced with CD40, incubated with K562_CD137"
1,B1,~100 ng/mL
2,B2,~100 ng/mL
3,B3,~100 ng/mL
4,B4,~100 ng/mL
5,B5,~100 ng/mL
6,B6,~100 ng/mL
7,B7,~100 ng/mL
